Results: US20240327516A1 (Zymeworks, published 2024)
Residue numbers refer to the chain shown, from its start. Where two headings read alike, the source gives them in different places.

Columns and labels:
[1] = target: T1, CD3 on CD3+ Jurkat cells and primary human T cells (human, UniProt P07766 23-207); assay: whole-cell ELISA on CD3+ Jurkat cells, apparent affinity; Jurkat cells
T1 construct: whole, on cells; also called native CD3; CD3ε

[2] = target: T2, mesothelin (MSLN) on MSLN-expressing tumor cells (human, UniProt Q13421 296-598); assay: cell-based or functional assay
[3] = target: T2, mesothelin (MSLN) on MSLN-expressing …
[4] = target: T1, CD3 on CD3+ Jurkat cells and primary …; assay: flow cytometry on primary human T cells, apparent affinity
[5] = target: T2, mesothelin (MSLN) on MSLN-expressing …; remark: listed apart in the source
[6] = target: T2, mesothelin (MSLN) on MSLN-expressing …; assay: cell-based or functional assay; remark: listed apart in the source
[7] = target: MSLN (form in the assay not stated) (UniProt Q13421 296-580); assay: method and antigen form not stated in Table 12
[8] = target: T1, CD3 on CD3+ Jurkat cells and primary …; assay: whole-cell ELISA on CD3+ Jurkat cells, apparent affinity
[9] = target: T1, CD3 on CD3+ Jurkat cells and primary …; assay: whole-cell ELISA on CD3+ Jurkat cells, apparent affinity; main value of the cell, outside the parentheses
[10] = target: T1, CD3 on CD3+ Jurkat cells and primary …; assay: flow cytometry on primary human CD4+ T cells (anti-IgG-Fc detection, geo MFI)
[11] = target: T2, mesothelin (MSLN) on MSLN-expressing …; remark: listed apart in the source
[12] = target: T2, mesothelin (MSLN) on MSLN-expressing …; assay: flow cytometry on MSLN+ OVCAR-3 cells (Alexa Fluor 647 anti-IgG-Fc, MFI)
[13] = target: T2, mesothelin (MSLN) on MSLN-expressing …; assay: whole-cell flow cytometry on OVCAR-3 cells, apparent affinity
[14] = target: T1, CD3 on CD3+ Jurkat cells and primary …; assay: cell ELISA on whole CD3+ Jurkat cells (HRP anti-human IgG Fc, A 450nm)
[15] = target: T2, mesothelin (MSLN) on MSLN-expressing …; remark: listed apart in the source
[16] = target: T1, CD3 on CD3+ Jurkat cells and primary …; assay: flow cytometry on primary human CD8+ T cells (anti-IgG-Fc detection, geo MFI)
[17] = target: T1, CD3 on CD3+ Jurkat cells and primary …; assay: whole-cell flow cytometry on primary human T cells, apparent affinity

T2 sequence (Q13421 other isoform, or with tags, fused parts or gaps limits assumed): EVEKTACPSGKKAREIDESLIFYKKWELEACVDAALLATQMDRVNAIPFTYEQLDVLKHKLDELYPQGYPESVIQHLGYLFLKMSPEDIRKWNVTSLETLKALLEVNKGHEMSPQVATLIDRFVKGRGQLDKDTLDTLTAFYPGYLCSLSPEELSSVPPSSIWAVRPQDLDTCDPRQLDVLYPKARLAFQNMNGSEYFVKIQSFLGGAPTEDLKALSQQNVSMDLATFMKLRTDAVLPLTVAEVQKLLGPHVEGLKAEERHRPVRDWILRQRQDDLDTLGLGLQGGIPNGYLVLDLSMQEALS
T1 sequence (P07766 23-207): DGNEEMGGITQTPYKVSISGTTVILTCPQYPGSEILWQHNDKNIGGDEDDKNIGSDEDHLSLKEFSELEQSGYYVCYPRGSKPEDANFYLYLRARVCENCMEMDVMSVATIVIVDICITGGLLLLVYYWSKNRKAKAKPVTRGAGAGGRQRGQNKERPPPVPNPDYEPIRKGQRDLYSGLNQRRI
MSLN (form in the assay not stated), sequence (Q13421 other isoform, or with tags, fused parts or gaps limits assumed): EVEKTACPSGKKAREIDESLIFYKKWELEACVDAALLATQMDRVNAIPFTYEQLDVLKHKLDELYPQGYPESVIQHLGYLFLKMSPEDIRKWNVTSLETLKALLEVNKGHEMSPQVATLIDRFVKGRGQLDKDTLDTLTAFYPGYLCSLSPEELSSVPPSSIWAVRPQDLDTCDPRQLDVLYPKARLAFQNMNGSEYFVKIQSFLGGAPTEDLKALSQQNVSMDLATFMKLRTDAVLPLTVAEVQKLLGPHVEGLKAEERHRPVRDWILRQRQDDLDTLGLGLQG

B1: v21791, trivalent and bispecific antibody construct [MSLN (2 Fab) x CD3 (1 Fab)] (bispecific antibody, human IgG1, kappa, lambda, L234A L235A)
heavy 1: not shown
heavy 2: QVQLVQSGAEVKKPGASVKVSCKASGYSFTGYTMNWVRQAPGQGLEWMGLITPYNGASSYNQKFRGKATMTVDTSTSTVYMELSSLRSEDTAVYYCARGGYDGRGFDYWGQGTLVTVSSASTKGPSVFPRAPSSKSTSGGTAALGCLVKDYFPEPVTVSWNSGALTSGVHTFPAVLQSSGLYKLSSVVTVPSSSLGTQTYICNVNHKPSNTKVDKKVEPKSCDKTHTCPPCPAPEAAGGPSVFLFPPKPKDTLMISRTPEVTCVVVSVSHEDPEVKFNWYVDGVEVHNAKTKPREEQYNSTYRVVSVLTVLHQDWLNGKEYKCKVSNKALPAPIEKTISKAKGQPREPQVYVLPPSRDELTKNQVSLLCLVKGFYPSDIAVEWESNGQPENNYLTWPPVLDSDGSFFLYSKLTVDKSRWQQGNVFSCSVMHEALHNHYTQKSLSLSPG
light 1: NFMLTQPHSVSESPGKTVTISCKRNTGNIGSNYVNWYQQHEGSSPTTIIYRNDKRPDGVSDRFSGSIDRSSKSASLTISNLKTEDEADYFCQSYSSGFIFGGGTKLTVLGQPKAAPSVTLFPPSSEQLQANKARLVCLISDFYPGAVTVAWKADSSPVKAGVETTTPSKQSNNKYAASSYLSLTPEQWKSHKSYSCQVTHEGSTVEKTVAPAECS
light 2: DIQMTQSPSSLSASVGDRVTITCSASSSVSYMHWYQQKSGKAPKLLIYDTSKLASGVPSRFSGSGSGTDFTLTISSLQPEDFATYYCQQWSGYPLTFGQGTKLEIKRTVAAPSVFIFPPSDEQLKSGTASVGCWLNNFYPREAKVQWKVDNALQSGNSQESVTEQDSKDSTYSLDSTLELSKADYEKHKVYACEVTHQGLSSPVTKSFNRGEC
notes: also called Fab^3 construct; triple-Fab construct
For B1, the EC50 [1] was 402 nM, the “maximum killing of BxPC3 cells” value [2] was 60% and the EC50 [3] was 1.9 nM. For the same binder, the EC50 [4] was 7.4 nM and the “EC50 (read off the curve)” value [5] was about 0.7 nM.

B2: v29045, trivalent and bispecific antibody construct [MSLN (2 scFv) x CD3 (1 Fab)] (bispecific antibody, human IgG1, lambda, L234A L235A)
heavy 1: not shown
heavy 2: QVQLVQSGAEVKKPGASVKISCKASGYSFTGYTMNWVRQAPGQGLEWIGLITPYSGASSYAQKFQGRATLTVDKSTSTAYMELSSLRSEDTAVYYCARGGYDGRGFDYWGQGTLVTVSSGGGGSGGGGSGGGGSEIVLTQSPATLSLSPGERVTMSCSASSSVSYMHWYQQKPGQAPRLWIYDTSKLASGVPARFSGSGSGTDYTLTISSVEPEDFAVYYCQQWSGYPLTFGQGTKVEIKAAEPKSSDKTHTCPPCPAPEAAGGPSVFLFPPKPKDTLMISRTPEVTCVVVSVSHEDPEVKFNWYVDGVEVHNAKTKPREEQYNSTYRVVSVLTVLHQDWLNGKEYKCKVSNKALPAPIEKTISKAKGQPREPQVYVLPPSRDELTKNQVSLLCLVKGFYPSDIAVEWESNGQPENNYLTWPPVLDSDGSFFLYSKLTVDKSRWQQGNVFSCSVMHEALHNHYTQKSLSLSPG
light: B1 light 1 with Q127E, R134T, K192R, A212T
For B2, the “IC50 of T cell-dependent cytotoxicity on OVCAR-3 cells (pan T cells, E:T 5:1, 72 h)” value [6] was 0.0272 nM, the “Affinity to MSln” value [7] was 62.6 nM and the EC50 [3] was 0.4 nM. It also gave an EC50 [8] of 1.3 nM.

B3: v29048, trivalent and bispecific antibody construct [MSLN (2 scFv) x CD3 (1 Fab)] (bispecific antibody, human IgG1, lambda, L234A L235A)
heavy 1: not shown
heavy 2: EVQLLESGGGLVQPGGSVRISCAASGYSFTGYTMNWVRQAPGKGLEWIGLITPYSGASSYADSFKGRATLSVDNSKNTAYMQLNSLRAEDTAVYYCARGGYDGRGFDYWGQGTLVTVSSGGGGSGGGGSGGGGSDIQLTQSPSSLSASVGDRVTMTCSASSSVSYMHWYQQKPGKAPKLWIYDTSKLASGVPSRFSGSGSGTDYTLTISSVQPEDFATYYCQQWSKHPLTFGQGTKVEIKAAEPKSSDKTHTCPPCPAPEAAGGPSVFLFPPKPKDTLMISRTPEVTCVVVSVSHEDPEVKFNWYVDGVEVHNAKTKPREEQYNSTYRVVSVLTVLHQDWLNGKEYKCKVSNKALPAPIEKTISKAKGQPREPQVYVLPPSRDELTKNQVSLLCLVKGFYPSDIAVEWESNGQPENNYLTWPPVLDSDGSFFLYSKLTVDKSRWQQGNVFSCSVMHEALHNHYTQKSLSLSPG
light: B1 light 1 with Q127E, R134T, K192R, A212T
For B3, the “IC50 of T cell-dependent cytotoxicity on OVCAR-3 cells (pan T cells, E:T 5:1, 72 h)” value [6] was 0.0004 nM, the “Affinity to MSln” value [7] was 9.8 nM and the EC50 [3] was 0.5 nM. It also gave an EC50 [4] of 183 nM and an EC50 [9] of 5.5 nM.

B4: v18490, anti-MSLN antibody (mAb, MSLN (SS) Fab x 2) (antibody, human IgG1, kappa, L234A L235A)
heavy 1: B1 heavy 2 with R130L, K183S
heavy 2: not shown
light: B1 light 2 with G132V, W134L, D175S, E179T
B4 was tested, and the EC50 [3] was 1.6 nM.

B5: v21815, bivalent and bispecific antibody construct [MSLN (1 Fab) x CD3 (1 scFv)] (bispecific antibody, human IgG1, kappa, L234A L235A)
heavy 1: not shown
heavy 2: B1 heavy 2 with R130L, K183S
light: B1 light 2 with G132V, W134L, D175S, E179T
notes: also called 1x1 construct; 1+1 anti-CD3 scFv x anti-MSLN Fab construct
With B5 the “EC50 (read off the curve)” value [10] was about 2 nM, the Kd [11] was about 1.73 nM and the “EC50 (read off the curve)” value [12] was about 7 nM. For the same binder, the EC50 [13] was 6.7 nM, the “EC50 (read off the curve)” value [14] was about 2 nM and the “maximum killing of BxPC3 cells” value [2] was 35%. For the same binder, the “EC50 (read off the curve)” value [15] was about 2 nM, the “EC50 (read off the curve)” value [16] was about 2 nM and the EC50 [3] was 1.7 nM. The EC50 [4] was 0.2 nM and the EC50 [8] was 2.4 nM.

B6: v31926, negative control antibody [Hemagglutinin (HA) (2 scFv) x CD3 (1 Fab)] (bispecific antibody)
heavy 1: not shown
heavy 2: QVQLVQSGAEVKKPGASVRVSCRASGYIFTESGITWVRQAPGQGLEWMGWISGYSGDTKYAQKLQGRVTMTKDTSTTTAYMELRSLRYDDTAVYYCARDVQYSGSYLGAYYFDYWSPGTLVTVSSGGGGSGGGGSGGGGSGGGQSVLTQPPSASGTPGQRVTISCSGSSSNIGTNYVYWYQQFPGTAPKLLIYRSYQRPSGVPDRFSGSKSGSSASLAISGLQSEDEADYYCATWDDSLDGWVFGGGTKLTVLAAEPKSSDKTHTCPPCPAPEAAGGPSVFLFPPKPKDTLMISRTPEVTCVVVSVSHEDPEVKFNWYVDGVEVHNAKTKPREEQYNSTYRVVSVLTVLHQDWLNGKEYKCKVSNKALPAPIEKTISKAKGQPREPQVYVLPPSRDELTKNQVSLLCLVKGFYPSDIAVEWESNGQPENNYLTWPPVLDSDGSFFLYSKLTVDKSRWQQGNVFSCSVMHEALHNHYTQKSLSLSPG
light: B1 light 1 with Q127E, R134T, K192R, A212T
For B6, the EC50 [17] was 102 nM.
